This is an account of results in article PMC12646314, “Structure and encapsulation of carbonic anhydrase within the α-carboxysome” (Proceedings of the National Academy of Sciences of the …, 2025).

Data set [1] concerns the molecule itself. Kind of data set: cryo-EM structure; single-particle cryo-EM of purified T = 4 minishell/CsoSCA^ΔC (2.36 Å symmetry relaxed) and minishell/CsoSCA-C (3.05 Å); internal density seen at low contour, disordered.
Data set [2] deals with the molecule itself. Kind of data set: SEC-MALS; Superdex 200 Increase 10/300 GL, 0.70 mL/min, Buffer W (100 mM Tris/HCl pH 8, 150 mM NaCl, 1 mM EDTA), room temperature; injected at 5.6 mg/mL (CsoSCA), 0.9 mg/mL (CsoSCA-N), 1 mg/mL (CsoSCA^ΔC), 1.9 mg/mL (CsoSCA-C).
Data set [3] addresses T1, CsoS4A-CsoS1A minishell (Construct 4, S4A-S1A) (Halothiobacillus neapolitanus, UniProt O85043 1-83; P45689 1-98).
T1 construct: CsoS4A, shell pentamer of H. neapolitanus; CsoS1A, major shell hexamer of H. neapolitanus; Icosahedral shells, T = 3 and T = 4 populations; also called minishells; mini-α-shells; source: E. coli TOP10, purified (sucrose cushion and gradient, HiTrap Q FF anion exchange)
T1 sequence 1: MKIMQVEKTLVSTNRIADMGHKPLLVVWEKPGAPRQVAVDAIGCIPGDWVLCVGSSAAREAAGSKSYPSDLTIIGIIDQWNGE
T1 sequence 2: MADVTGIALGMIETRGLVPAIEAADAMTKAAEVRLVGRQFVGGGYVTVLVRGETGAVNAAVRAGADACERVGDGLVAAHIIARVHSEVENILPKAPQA
In words: co-purification with assembled minishells (sucrose cushion and gradient, anion exchange), immunoblot; CsoSCA constructs coexpressed with minishell constructs in E. coli TOP10; minishells purified; samples normalised to CsoS1A; anti-His blot. Conditions: partners not purified. On the technique in general: Immunoblotting shows a protein as a band on a membrane.

B1: CsoS1A (the major shell hexamer) (natural protein, Halothiobacillus neapolitanus)
chain: MADVTGIALGMIETRGLVPAIEAADAMTKAAEVRLVGRQFVGGGYVTVLVRGETGAVNAAVRAGADACERVGDGLVAAHIIARVHSEVENILPKAPQA
notes: CsoS1A, major alpha-carboxysome shell protein of H. neapolitanus; also called CsoS1A shell hexamer; source: E. coli TOP10, expressed from the minishell construct; in lysate (pull-down) and in purified minishells (cryo-EM)
For the molecule B1, the “stoichiometry N” value in data set [1] amounted to 6.

B2: CsoS4A (shell pentamer) (natural protein, Halothiobacillus neapolitanus)
chain: MKIMQVEKTLVSTNRIADMGHKPLLVVWEKPGAPRQVAVDAIGCIPGDWVLCVGSSAAREAAGSKSYPSDLTIIGIIDQWNGE
notes: CsoS4A, alpha-carboxysome shell vertex protein of H. neapolitanus; also called CsoS4A pentamer; source: E. coli TOP10, expressed from the minishell construct, in purified minishells
Regarding B2, in data set [1], the “stoichiometry N” value was 5.

B3: Twin-Strep-GB1-CsoSCA (Halothiobacillus neapolitanus carboxysomal carbonic anhydrase) (enzyme)
chain: NTRNTRSKQRAPFGVSSSVKPRLDLIEQAPNPAYDRHPACITLPERTCRHPLTDLEANEQLGRCEDSVKNRFDRVIPFLQVVAGIPLGLDYVTRVQELAQSSLGHTLPEELLKDNWISGHNLKGIFGYATAKALTAATEQFSRKIMSEKDDSASAIGFFLDCGFHAVDISPCADGRLKGLLPYILRLPLTAFTYRKAYAGSMFDIEDDLAQWEKNELRRYREGVPNTADQPTRYLKIAVYHFSTSDPTHSGCAAHGSNDRAALEAALTQLMKFREAVENAHCCGASIDILLIGVDTDTDAIRVHIPDSKGFLNPYRYVDNTVTYAQTLHLAPDEARVIIHEAILNANRSDGWAKGNGVASEGMRRFIGQLLINNLSQIDYVVNRHGGRYPPNDIGHAERYISVGDGFDEVQIRNLAYYAHLDTVEENAIDVDVGIKIFTKLNLSRGLPIPIAIHYRYDPNVPGSRERTVVKARRIYNAIKERFSSLDEQNLLQFRLSVQAQDIGSPIEEVASA
notes: CsoSCA, alpha-carboxysomal beta-class carbonic anhydrase of Halothiobacillus neapolitanus; UniProt O85042; the domain scheme runs from residue 1 to 514; Vector pETM11; TEV protease was used to remove the tags only for DLS; also called HnCsoSCA; source: Superdex 200 for cryo-EM; not shown: Twin-Strep, N-terminal, kept
As for B3, the “stoichiometry N” value in data set [2] was found to be 6.

B4: CsoSCA-His6 (CsoSCA fused to a C-terminal His6 tag) (enzyme, Halothiobacillus neapolitanus, UniProt O85042 1-514, looked up)
chain: MNTRNTRSKQRAPFGVSSSVKPRLDLIEQAPNPAYDRHPACITLPERTCRHPLTDLEANEQLGRCEDSVKNRFDRVIPFLQVVAGIPLGLDYVTRVQELAQSSLGHTLPEELLKDNWISGHNLKGIFGYATAKALTAATEQFSRKIMSEKDDSASAIGFFLDCGFHAVDISPCADGRLKGLLPYILRLPLTAFTYRKAYAGSMFDIEDDLAQWEKNELRRYREGVPNTADQPTRYLKIAVYHFSTSDPTHSGCAAHGSNDRAALEAALTQLMKFREAVENAHCCGASIDILLIGVDTDTDAIRVHIPDSKGFLNPYRYVDNTVTYAQTLHLAPDEARVIIHEAILNANRSDGWAKGNGVASEGMRRFIGQLLINNLSQIDYVVNRHGGRYPPNDIGHAERYISVGDGFDEVQIRNLAYYAHLDTVEENAIDVDVGIKIFTKLNLSRGLPIPIAIHYRYDPNVPGSRERTVVKARRIYNAIKERFSSLDEQNLLQFRLSVQAQDIGSPIEEVASA
notes: CsoSCA of H. neapolitanus, UniProt O85042; called full-length CsoSCA in the discussion; also called full-length CsoSCA; source: E. coli TOP10, coexpressed with minishell constructs, co-purified with minishells; not shown: His6, C-terminal, kept
Take B4: in data set [3], the “fold copurified CsoSCA, against minishells with CsoS2” value is no less than 4 fold.

What is called stoichiometry N is a count of units in the complex or per binding partner.
